Data reported in patent US20080064048A1, “Methods for Selecting Proteins that are Readily Presented as Antigens on Dendritic Cells” (Medical and Biological Laboratories, Co., Ltd., priority 2004, published 2008).

Columns and labels:
[1] = biological target: T1, Sec61α (Mus musculus, UniProt P61620); assay: Co-immunoprecipitation of bOVA with anti-Sec61α; type: binding; settings: DC2.4 cells incubated with bOVA
T1 construct: endogenous in cells; host or cells: DC2.4 mouse dendritic cell line
Method: (§1) 2×10^7 DC2.4 or BMDC cells were cultured for four hours in a medium containing 10 μM MG-132 in the presence of bOVA at 250 μg mL^−1. Cells were lysed in 20 mM HEPES pH7.6 containing 1% digitonin and protease inhibitors to collect biotin-labeled samples. The samples were cleared of impurities in advance using protein G sepharose (Amersham Pharmacia Biotech), and after incubation with antibodies for precipitation (anti-Sec61β, anti Sec61α, anti-VCP, anti-BiP, anti-PDI, anti-calreticulin, anti-TAP1, and anti-TAP2), the immunoprecipitates were collected using protein G. When chicken anti-CHIP antibody was used, immunoprecipitates were collected using a rabbit anti-IgY column (a person, MBL). The precipitated samples were analyzed by SDS-PAGE and Western blotting.

[2] = biological target: T2, VCP (Mus musculus, UniProt Q01853); assay: Co-immunoprecipitation of bOVA with anti-VCP; type: binding
T2 construct: endogenous in cells; host or cells: DC2.4 mouse dendritic cell line; bone marrow-derived dendritic cells
Method: as §1

[3] = biological target: T3, PDI (Mus musculus, UniProt P09103); assay: Co-immunoprecipitation of bOVA with anti-PDI; type: binding; settings: DC2.4 cells incubated with bOVA
T3 construct: Three types of ER resident proteins; endogenous in cells; host or cells: DC2.4 mouse dendritic cell line
T3 sequence (P09103 20-509): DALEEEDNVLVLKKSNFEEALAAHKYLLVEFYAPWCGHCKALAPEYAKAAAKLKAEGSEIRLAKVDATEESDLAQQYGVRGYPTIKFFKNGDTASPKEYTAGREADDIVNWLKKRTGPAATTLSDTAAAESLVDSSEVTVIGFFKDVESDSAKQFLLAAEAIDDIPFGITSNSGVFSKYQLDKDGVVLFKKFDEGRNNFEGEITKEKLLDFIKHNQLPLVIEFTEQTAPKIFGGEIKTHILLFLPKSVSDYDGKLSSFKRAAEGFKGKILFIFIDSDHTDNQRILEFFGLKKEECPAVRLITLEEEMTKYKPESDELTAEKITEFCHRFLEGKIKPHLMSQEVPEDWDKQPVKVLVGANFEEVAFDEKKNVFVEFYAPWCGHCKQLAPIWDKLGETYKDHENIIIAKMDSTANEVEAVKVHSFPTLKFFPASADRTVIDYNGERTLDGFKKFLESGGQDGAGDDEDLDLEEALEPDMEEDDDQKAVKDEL
Method: as §1

[4] = biological target: T4, CHIP (Mus musculus, UniProt Q9WUD1); assay: Co-immunoprecipitation of bOVA with anti-CHIP; type: binding; settings: DC2.4 cells incubated with bOVA
T4 construct: endogenous in cells; host or cells: DC2.4 mouse dendritic cell line
T4 sequence (Q9WUD1 1-304): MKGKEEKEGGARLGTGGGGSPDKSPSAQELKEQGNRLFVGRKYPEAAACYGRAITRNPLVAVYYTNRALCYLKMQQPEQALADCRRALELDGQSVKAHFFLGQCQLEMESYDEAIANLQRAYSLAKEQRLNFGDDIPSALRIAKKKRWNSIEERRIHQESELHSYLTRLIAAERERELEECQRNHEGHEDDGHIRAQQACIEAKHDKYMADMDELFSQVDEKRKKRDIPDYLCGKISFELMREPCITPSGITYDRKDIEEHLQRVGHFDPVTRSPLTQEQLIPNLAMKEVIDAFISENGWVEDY
Method: as §1

[5] = biological target: T5, TAP1 (Mus musculus, UniProt P21958); assay: Co-immunoprecipitation of bOVA with anti-TAP1; type: binding; settings: DC2.4 cells incubated with bOVA
T5 construct: endogenous in cells; host or cells: DC2.4 mouse dendritic cell line
T5 sequence (P21958 1-724): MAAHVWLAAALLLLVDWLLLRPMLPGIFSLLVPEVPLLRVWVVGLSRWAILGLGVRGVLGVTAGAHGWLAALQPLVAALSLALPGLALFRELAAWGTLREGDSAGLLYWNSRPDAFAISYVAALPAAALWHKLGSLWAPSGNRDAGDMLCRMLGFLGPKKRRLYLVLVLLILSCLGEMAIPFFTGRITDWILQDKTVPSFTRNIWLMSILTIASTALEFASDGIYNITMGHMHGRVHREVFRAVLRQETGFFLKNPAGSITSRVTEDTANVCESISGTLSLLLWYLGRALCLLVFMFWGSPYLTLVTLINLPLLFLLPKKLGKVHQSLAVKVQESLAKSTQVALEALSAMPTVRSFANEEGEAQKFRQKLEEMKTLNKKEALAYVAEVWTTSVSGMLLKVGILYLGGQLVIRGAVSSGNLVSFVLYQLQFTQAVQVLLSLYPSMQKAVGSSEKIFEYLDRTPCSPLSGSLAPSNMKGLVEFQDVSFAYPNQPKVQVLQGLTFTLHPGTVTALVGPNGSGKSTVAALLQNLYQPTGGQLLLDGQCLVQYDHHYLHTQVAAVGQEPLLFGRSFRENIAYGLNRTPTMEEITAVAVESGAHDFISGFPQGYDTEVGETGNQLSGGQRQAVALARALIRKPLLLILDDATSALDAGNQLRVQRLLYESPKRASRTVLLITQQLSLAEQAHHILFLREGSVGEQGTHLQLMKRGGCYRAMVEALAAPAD
Method: as §1

[6] = test system: OT-I CD8+ T cells; assay: Antigen presentation level: IL-2 production by OT-I CD8+ T cells (ELISA); type: cell-based, mouse; settings: DC2.4, dose-response OVA vs bOVA
Description: Whether knock-down of cellular components involved in ERAD decreases the cross-presentation of exogenous OVA antigen was examined using a system for evaluating the level of antigen presentation, which uses naive CD8^+ T cells from OT-I mice and DC2.4 cells. The DC2.4 cells used as a model of dendritic cells are of the H-2 Kb mouse MHC class I haplotype. OT-I (H-2 Kb) mice are transgenic mice expressing a T cell receptor (TCRα and β) that recognizes an antigenic peptide (SIINFEKL) (SEQ ID NO: 15) derived from OVA presented on the H-2 Kb molecules. The CD8^+ cells of OT-I mice are activated when they recognize OVA peptides presented by BMDCs derived from H-2 Kb mice or by DC2.4 cells. When OVA or bOVA is incubated with and affixed onto DC2.4 cells and the cells are further incubated with naive CD8^+ T cells of OT-I mice, the amount of IL-2 produced by OT-I CD8^+ T cells serves as an index of T-cell stimulation as a result of OVA antigen presented by DC2.4 cells.
Parental or knocked-down DC2.4 cells were pre-incubated in a culture medium supplemented with 50 μg mL^−1 polymyxin B for 30 minutes in the presence or absence of lactacystin or MG-132, and incubated with OVA (250 μg mL^−1) or SIINFEKL (SEQ ID NO: 15) peptides (10 ng mL^−1) for six hours. The cells were washed, fixed with 1% paraformaldehyde, and aliquoted into microtiter plates (5×10^4 per well). 5×10^4 CD8^+ T cells purified from splenocytes of OT-1 mice using magnetic beads were added to each well and after a 24-hour incubation, the IL-2 secretion was measured by ELISA (BD Biosciences) in triplicate. […]

T2 sequence (Q01853 2-806 limits assumed): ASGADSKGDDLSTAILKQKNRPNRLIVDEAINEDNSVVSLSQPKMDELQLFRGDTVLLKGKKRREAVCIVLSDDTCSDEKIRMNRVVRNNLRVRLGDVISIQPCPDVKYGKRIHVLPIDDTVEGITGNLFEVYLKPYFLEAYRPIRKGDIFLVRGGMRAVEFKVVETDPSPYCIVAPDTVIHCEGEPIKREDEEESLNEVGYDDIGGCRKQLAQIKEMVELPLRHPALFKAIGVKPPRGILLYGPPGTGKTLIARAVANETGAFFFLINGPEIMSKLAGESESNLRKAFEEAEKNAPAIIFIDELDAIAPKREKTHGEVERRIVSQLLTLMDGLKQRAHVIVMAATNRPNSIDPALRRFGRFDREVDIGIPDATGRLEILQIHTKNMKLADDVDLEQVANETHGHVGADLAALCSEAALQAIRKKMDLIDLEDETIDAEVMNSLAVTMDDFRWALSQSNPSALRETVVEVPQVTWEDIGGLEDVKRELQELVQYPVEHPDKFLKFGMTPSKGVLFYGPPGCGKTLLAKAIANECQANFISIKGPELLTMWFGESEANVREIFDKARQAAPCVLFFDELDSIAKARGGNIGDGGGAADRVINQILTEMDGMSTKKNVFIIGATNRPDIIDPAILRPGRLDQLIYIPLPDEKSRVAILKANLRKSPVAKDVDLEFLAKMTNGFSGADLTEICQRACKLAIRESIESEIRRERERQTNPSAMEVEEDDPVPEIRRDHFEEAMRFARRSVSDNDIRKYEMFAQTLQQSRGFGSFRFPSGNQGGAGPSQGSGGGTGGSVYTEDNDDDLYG
T1 sequence (P61620 whole entry): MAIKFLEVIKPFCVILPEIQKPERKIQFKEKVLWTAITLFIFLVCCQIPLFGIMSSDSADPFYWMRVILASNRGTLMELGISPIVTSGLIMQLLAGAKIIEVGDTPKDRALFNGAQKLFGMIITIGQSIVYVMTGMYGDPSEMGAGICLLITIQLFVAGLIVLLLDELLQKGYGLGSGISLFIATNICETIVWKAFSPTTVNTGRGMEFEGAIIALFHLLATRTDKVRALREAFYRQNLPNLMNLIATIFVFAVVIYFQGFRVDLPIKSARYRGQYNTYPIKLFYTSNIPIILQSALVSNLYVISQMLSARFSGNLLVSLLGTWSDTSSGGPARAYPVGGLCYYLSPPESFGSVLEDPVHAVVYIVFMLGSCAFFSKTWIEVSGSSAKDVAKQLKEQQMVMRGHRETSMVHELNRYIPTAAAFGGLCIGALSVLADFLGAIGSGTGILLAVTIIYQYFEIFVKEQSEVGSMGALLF
T1 sequence (Q9CQS8 2-96 partner limits assumed): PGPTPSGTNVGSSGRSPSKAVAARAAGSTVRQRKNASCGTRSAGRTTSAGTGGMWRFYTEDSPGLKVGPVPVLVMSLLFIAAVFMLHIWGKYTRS
T1 sequence (P60060 whole entry partner): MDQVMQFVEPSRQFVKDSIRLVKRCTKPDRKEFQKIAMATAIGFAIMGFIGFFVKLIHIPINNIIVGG

B1: bOVA: biotin-labeled OVA antigen (protein)
chain: GSIGAASMEFCFDVFKELKVHHANENIFYCPIAIMSALAMVYLGAKDSTRTQINKVVRFDKLPGFGDSIEAQCGTSVNVHSSLRDILNQITKPNDVYSFSLASRLYAEERYPILPEYLQCVKELYRGGLEPINFQTAADQARELINSWVESQTNGIIRNVLQPSSVDSQTAMVLVNAIVFKGLWEKAFKDEDTQAMPFRVTEQESKPVQMMYQIGLFRVASMASEKMKILELPFASGTMSMLVLLPDEVSGLEQLESIINFEKLTEWTSSNVMEERKIKVYLPRMKMEEKYNLTSVLMAMGITDVFSSSANLSGISSAESLKISQAVHAAHAEINEAGREVVGSAEAGVDAASVSEEFRADHPFLFCIKHIATNAVLFFGRCVSP
[1]
  interaction with Sec61α (co-immunoprecipitation): interacts
[2]; BMDCs
  interaction with VCP (co-immunoprecipitation): interacts
[2]; DC2.4 cells incubated with bOVA
  interaction with VCP (co-immunoprecipitation): interacts
[3]
  interaction with PDI (co-immunoprecipitation): interacts
[4]
  interaction with CHIP (co-immunoprecipitation): interacts
[5]
  interaction with TAP1 (co-immunoprecipitation): does not interact
[6]
  antigenicity for stimulation of CD8+ OT-I T cells (IL-2 production): equally antigenic
